“Also recorded” adds a separate entry of the source.
Columns and labels:
ICAM-1 = assay: TNF-α-induced ICAM-1 expression in HUVEC (western blot); format: cell-based, human; conditions: 10 min pretreatment, TNFα 10 ng/ml 5 hours, 200 μg/ml
Protocol: HUVECs were plated as described above. After 24 hours cells were shifted to M199 media supplemented with 1% FCS, 8 mM Glutamine, 1× Pen-Strep. After 30 minutes, cells were pretreated for 10 minutes with media, ApoM-Fc-S1P (100 nM S1P), Iloprost (100 nM), ApoA1-ApoM (200 μg/ml), ApoA1-ApoM-Iloprost (200 ug/ml; 100 nM Iloprost) or ApoA1-ApoM-S1P (200 μg/ml 100 nM S1P) or in combinations and subsequently treated with TNF-α (10 ng/ml). After 5 hours, cells were lysed with cell lysis buffer (TBS-T; 20 mM Tris-pH8, 160 mM NaCl, 1% Triton, 1× protease inhibitor cocktail (Sigma)), collected and centrifuged at 20,000×g for 5 minutes at 4° C., extracts were analyzed by 10% SDS-PAGE, transferred to nitrocellulose membrane (Bio-Rad), blocked in 5% milk, and probed with antibodies to ICAM-1 (1:1000, sc-8439, Santa Cruz Biotech) and Actin (1:5000, sc-8432, Santa Cruz Biotech). Blots were developed with appropriate secondary antibodies linked to HRP and visualized by chemiluminescence (Immobilon Western, EMD Millipore) using a ChemiDoc Imaging (Biorad).

HUVEC = assay: TEER analysis of endothelial barrier function; format: cell-based, human; conditions: HUVEC; S1P 10-300 nM, A1M 0.8-24 μg/ml; unloaded controls up to 24 μg/ml
Protocol: Transendothelial Electrical Resistance (TEER) was performed on HUVEC as described previously (Swendeman et al, 2017). Essentially, HUVECs were maintained in HUVEC Growth Medium (HGM; M199 medium supplemented with 10% FCS (Corning), 1:100 Pen-Strep (Sigma), 8 mM Glutamine (Sigma), Heparin (Sigma, 100 U, LMW) and Sheep Brain Extract prepared (REF). All cultures were maintained on Fibrobronectin (2 μg/ml) coated plates. For TEER analysis a 96 well ECIS system (96W10idf PET array, Applied BioPhysics) was employed. Wells were coated with Fibronectin (2 μg/ml) resuspended in saline for 30 minutes at room temp. HUVECs were harvested, resuspended in HGM at a cell density of 25-30×10^3 cells/well and allowed to adhere overnight. Prior to analysis, culture media was removed and replaced with M199 media supplemented with Pen-Strep/Glutamine and 1% FCS for 30 minutes. For stimulation studies, either Iloprost (Cayman Biochemicals) or Iloprost loaded onto ApoA1 or ApoA1-ApoM chaperones, or S1P prepared on ApoA1-ApoM or ApoM-Fc chaperones were added to cultures and TEER studies were performed from 3-24 hours.

NF-κB = assay: TNFα-induced NF-κB luciferase reporter assay in HMEC; format: cell-based, human
Protocol: TNFα-dependent NF-κB signaling was determined by using an NFκB-Luciferase based reporter assay system (pGL4.32[luc2P/NF-κB-RE/Hygro]; Promega). A stable NFκB reporter cell line in human microvascular endothelial cells (HMEC-1; ATCC) was created. HMEC were maintained in 10% FCS/Pen-Strep MCDB media supplemented with 2 mM L-Glutamine (Sigma), EGF (2 ng/ml; R&D systems) and Hydrocortisone (1 ng/ml; Sigma). […] The 5×10^5 reporter cells were distributed to 12 well plates and allowed to adhere for 24 hours. Media was replaced with MCDB media supplemented with 1% FCS, L-Glutamine. […] Samples were extracted using cell lysis buffers (Promega), luciferin substrate was added and the plates were measured for […] at 470 nm for 8-15 minutes in a SpectraMax L 96-well plate reader (Molecular Devices).

Neutrophils = assay: fMLP-dependent neutrophil ROS generation; format: cell-based, mouse; conditions: ApoM-S1P 100 nM S1P, ApoA1-Iloprost 160 nM drug, area under the curve
Protocol: Peritoneal Neutrophils were isolated from C57Bl/6 mice after thioglycolate elicitation. Thioglycolate (2 ml of 2% v/v) resuspended in water was administered by intraperitoneal injection. After 4 hours, mice were euthanized and 5 ml of HBSS was injected intraperitoneally, the abdomen was messaged for 1 minute and the peritoneal fluid was removed. The resulting cells were pelleted, RBCs were lysed with ACK buffer, re-pelleted and resuspended in PBS-glucose. Cells were counted, 5×10^5 cells were dispersed into 96 well clear bottom plates containing luminol 100 mM and 10 U/ml of horseradish peroxidase and read for blank background. F-Met-Leu-Phe (fMLP; 10 μM) was added and plates were read on a SpectraMaxL1 (Molecular Devices, San Jose, CA) over 5 minutes as described previously. The area under the curve was calculated by using GraphPad Prism 7 (GraphPad Software, San Diego, CA).

inhibition of TNFα-induced NF-κB activity at higher doses (NF-κB; 100-400 μg/ml, bi-phasic dose-response) | inhibition of TNFα-induced NF-κB activity (NF-κB; low doses 25-50 μg/ml) | Molecule | inhibition of TNFα-induced ICAM1 expression (ICAM-1) | enhancement of endothelial barrier function (TEER) (HUVEC) | inhibition of neutrophil ROS generation (Neutrophils)
not as inhibitory | ~25% | A1M: recombinant fusion protein of Apolipoprotein A1 and Apolipoprotein M with GGGGS linker and 6x His tag (SEQ ID NO: 23) (protein) MKAVVLAVALVFLTGSQAWHVWQQDEPQSQWDKVKDFANVYVDAVKDSGRDYVSQFESSSLGQQLNLNLLENWDTLGSTVSQLQERLGPLTRDFWDNLEKETDWVRQEMNKDLEEVKQKVQPYLDEFQKKWKEDVELYRQKVAPLGAELQESARQKLQELQGRLSPVAEEFRDRMRTHVDSLRTQLAPHSEQMRESLAQRLAELKSNPTLNEYHTRAKTHLKTLGEKARPALEDLRHSLMPMLETLKTKAQSVIDKASETLTAQTRTRPLGGGGSNQCPEHSQLTALGMDDTETPEPHLGLWYFIAGAASTTEELATFDPVDNIVFNMAAGSAPRQLQLRATIRTKSGVCVPRKWTYRLTEGKGNMELRTEGRPDMKTDLFSSSCPGGIMLKETGQGYQRFLLYNRSPHPPEKCVEEFQSLTSCLDFKAFLVTPRNQEACPLSSKHHHHHH | inhibiting downstream inflammatory ICAM1 expression | no functional barrier protection; also recorded: did not induce endothelial barrier enhancement | –
– | – | ApoM-S1P: ApoM-bound S1P as named in FIG. 6 results; chaperone form not specified (protein, UniProt O95445 1-188, looked up, bound S1P, chaperone form not specified) Apolipoprotein M: MFHQIWAALLYFYGIILNSIYQCPEHSQLTTLGVDGKEFPEVHLGQWYFIAGAAPTKEELATFDPVDNIVFNMAAGSAPMQLHLRATIRMKDGLCVPRKWIYHLTEGSTDLRTEGRPDMKTELFSSSCPGGIMLNETGQGYQRFLLYNRSPHPPEKCVEEFKSLTSCLDSKAFLLTPRNQEACELSNN | – | – | ~42%
